T1: HicB109-150 (C-terminal DNA-binding domain) (Streptococcus pneumoniae, UniProt A0A0H2URC7 109-150)
T1 chain: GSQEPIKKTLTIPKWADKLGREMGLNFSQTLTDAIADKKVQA

B1: hicBA promoter DNA, 28 bp (dsDNA)
DNA 1: TAATAGAATAATAAGTATCACTCCTTTA
DNA 2: TAAAGGAGTGATACTTATTATTCTATTA
B2: Pal-I (dsDNA)
DNA 1: TCTGTAACGTTCGATACAGA
DNA 2: TCTGTATCGAACGTTACAGA

Legend:
[1] = biological target: T1, HicB109-150 (C-terminal DNA-binding …); assay: NMR titration
[2] = biological target: T2, HicB antitoxin;HicA toxin (Streptococcus pneumoniae;Streptococcus …, UniProt A0A0H2URC7;A0A0H2URA5 1-150;1-68, |); assay: ITC
[3] = biological target: T3, HicB antitoxin (Streptococcus pneumoniae, UniProt A0A0H2URC7 1-150); assay: ITC
[4] = biological target: T3, HicB antitoxin; assay: EMSA
[5] = biological target: T2, HicB antitoxin;HicA toxin; assay: EMSA

Binder | Kd [1] | Kd [2] | Kd [3] | binding result [4] | binding result [5]
B1 | 4.5 ± 1.1 µM | 4.2 ± 0.4 µM | 8.8 ± 1.1 µM | – | –
B2 | – | – | – | no binding | no binding

Reference: paper PMC6159526
